Experimental data: the supplement of paper PMC6757056
± gives the standard deviation of the averaged measurements.

B1: library; a variant is named by its letters at N, in order (parent)
chain: GCUGUCACCGGUGCUUGGUACGUUAUAUUCAGCCGGUCUGAUGAGUCUNNNNNNAGACGAAACAGC

How the values were obtained:
(6R,S)-folinic acid [1] = variants of: B1; experiment: normalized RNA/DNA level without ligand (relative to sTRSVctl = 100) (log10 (% of sTRSVctl)); HEK293T overexpressing SLC46A1; higher = less ribozyme self-cleavage, higher mRNA level; conditions: without (6R,S)-folinic acid; ligand present: no
Outline: (§1)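 Ribozyme switch library plasmids linked to reporters were introduced into HEK293T cells at 4 µg per 6-well well, with ligand, if any, added 1 h before. Total RNA was extracted with EDTA 72 h later, reverse-transcribed, amplified, barcoded and sequenced. RNA level was computed from RNA over DNA reads relative to a spiked-in non-cleaving sequence or the top sequences, then scaled and log-transformed. The top set was 25 sequences, values were ×100 and log10, and the cutoff was ≥100 DNA reads.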

(6R,S)-folinic acid [2] = variants of: B1; experiment: normalized RNA/DNA level with ligand (relative to sTRSVctl = 100) (log10 (% of sTRSVctl)); HEK293T overexpressing SLC46A1; ligand concentration (+) RNA-Seq: 6 mM; higher = less ribozyme self-cleavage, higher mRNA level; conditions: with (6R,S)-folinic acid; ligand present: yes
Outline: as §1

Row | Variant | normalized RNA/DNA level without ligand (log10) ((6R,S)-folinic acid [1]) | normalized RNA/DNA level with ligand (log10) ((6R,S)-folinic acid [2])
1 | CAGUGG | 1.91 ± 0.023 | 2.005 ± 0.0026
2 | CAGUGU | 2.015 ± 0.02 | 2.03 ± 0.025
3 | CAGUGC | 2.011 ± 0.014 | 2 ± 0.026
4 | CAGUGA | 1.979 ± 0.011 | 2.007 ± 0.02
5 | GAGGAA | 1.952 ± 0.0031 | 2.01 ± 0.03
6 | GAGGAC | 1.947 ± 0.013 | 2.014 ± 0.016
7 | GAGGAG | 1.9 ± 0.013 | 2.031 ± 0.017
8 | UAGCGU | 1.921 ± 0.0035 | 1.99 ± 0.048
9 | UAGCGA | 1.921 ± 0.018 | 2.035 ± 0.019
10 | UAGCGC | 1.998 ± 0.018 | 2.005 ± 0.013
11 | AAUCGA | 1.974 ± 0.019 | 2 ± 0.029
12 | AAUCGU | 1.99 ± 0.0073 | 2.013 ± 0.0078
13 | CAUGAC | 1.98 ± 0.024 | 2 ± 0.012
14 | CAUGAG | 1.942 ± 0.0092 | 2.006 ± 0.0049
15 | CAUGAU | 1.97 ± 0.02 | 1.997 ± 0.012
16 | CAUCAG | 1.97 ± 0.039 | 1.97 ± 0.021
17 | CAUCAU | 2.02 ± 0.052 | 2 ± 0.072
18 | CAUCAA | 1.977 ± 0.0041 | 1.97 ± 0.021
19 | CAUCAC | 2.03 ± 0.0083 | 2 ± 0.071
20 | AAUGAC | 1.9695 ± 0.0006 | 1.99 ± 0.037
21 | AAUGAU | 1.937 ± 0.012 | 2 ± 0.051
22 | UAGCAA | 1.918 ± 0.0043 | 1.98 ± 0.035
23 | UAGCAC | 1.992 ± 0.0065 | 2 ± 0.036

Row | Variant | normalized RNA/DNA level without ligand (log10) ((6R,S)-folinic acid [1]) | normalized RNA/DNA level with ligand (log10) ((6R,S)-folinic acid [2])
24 | AAGUGG | 1.87 ± 0.01 | 2.02 ± 0.041
25 | AAGUGC | 1.984 ± 0.0023 | 2.01 ± 0.052
26 | CAGUCA | 1.967 ± 0.0097 | 1.96 ± 0.058
27 | CAGUCU | 2.018 ± 0.0006 | 2.03 ± 0.038
28 | CAGUCC | 2.051 ± 0.011 | 2.04 ± 0.037
29 | AAGCCA | 2.009 ± 0.0029 | 2.03 ± 0.022
30 | AAGCCG | 1.988 ± 0.0067 | 2.01 ± 0.041
31 | AAGCCC | 2.0608 ± 0.0014 | 2.04 ± 0.039
32 | CAGCCC | 2.077 ± 0.02 | 2.027 ± 0.013
33 | CAGCCG | 2.044 ± 0.0032 | 2.053 ± 0.019
34 | CAGCCA | 1.9832 ± 0.0011 | 2.01 ± 0.063
35 | UAGUAC | 1.972 ± 0.002 | 2.01 ± 0.048
36 | CAGCUA | 2.02 ± 0.0022 | 2.04 ± 0.022
37 | CAGCUC | 2.05 ± 0.023 | 2.035 ± 0.013
38 | CAGCUU | 1.987 ± 0.0035 | 2.01 ± 0.026
39 | UAGGGC | 2.01 ± 0.0043 | 2.02 ± 0.03
40 | AAGGCU | 1.995 ± 0.011 | 2.019 ± 0.0048
41 | AAGGCA | 2.007 ± 0.0039 | 2.04 ± 0.022
42 | AAGGCG | 1.9326 ± 0.0006 | 2.03 ± 0.036
43 | CAGCAC | 2.03 ± 0.022 | 1.98 ± 0.045
44 | CAGCAG | 1.962 ± 0.015 | 2.03 ± 0.052
45 | CAGCAA | 1.963 ± 0.018 | 1.971 ± 0.013
46 | GAGGUC | 2.038 ± 0.01 | 2.04 ± 0.052

Row | Variant | normalized RNA/DNA level without ligand (log10) ((6R,S)-folinic acid [1]) | normalized RNA/DNA level with ligand (log10) ((6R,S)-folinic acid [2])
47 | AAGCAG | 1.925 ± 0.0059 | 2 ± 0.045
48 | AAGCAC | 2.022 ± 0.0075 | 1.98 ± 0.045
49 | UAGGAG | 1.63 ± 0.024 | 1.91 ± 0.033
50 | AAGGUU | 1.974 ± 0.015 | 2.02 ± 0.025
51 | CAUCUA | 2.05 ± 0.022 | 2.074 ± 0.012
52 | CAUCUU | 2.034 ± 0.0024 | 2 ± 0.038
53 | CAUCUG | 2.03 ± 0.032 | 2.02 ± 0.025
54 | UAGUGU | 1.901 ± 0.008 | 1.99 ± 0.0065
55 | UAGUGA | 1.8778 ± 0.0018 | 2 ± 0.025
56 | AAGUCC | 2 ± 0.023 | 2.01 ± 0.024
57 | AAGUCA | 1.969 ± 0.0021 | 1.98 ± 0.029
58 | AAGUCU | 2.066 ± 0.015 | 2.0681 ± 0.0013
59 | GAUCAC | 2.03 ± 0.031 | 2.034 ± 0.0087
60 | GAUCAU | 2.023 ± 0.008 | 2.02 ± 0.026
61 | GAUCAG | 2.03 ± 0.041 | 2.05 ± 0.028
62 | GAUCAA | 2.001 ± 0.0021 | 2 ± 0.027
63 | GAUCUC | 2.0583 ± 0.00073 | 1.99 ± 0.035
64 | GAUCUU | 2.031 ± 0.0082 | 2.02 ± 0.083
65 | GAUCUA | 2.03 ± 0.024 | 2.027 ± 0.02
66 | GAUCUG | 2.008 ± 0.013 | 2.032 ± 0.0047
67 | UAUCUU | 2.007 ± 0.005 | 2.05 ± 0.021
68 | UAUCUG | 1.878 ± 0.017 | 2 ± 0.023
69 | UAUCUC | 2.053 ± 0.018 | 2.03 ± 0.027

Row | Variant | normalized RNA/DNA level without ligand (log10) ((6R,S)-folinic acid [1]) | normalized RNA/DNA level with ligand (log10) ((6R,S)-folinic acid [2])
70 | UAUCUA | 1.987 ± 0.0076 | 2.03 ± 0.028
71 | GAUAUU | 2.005 ± 0.0061 | 2.02 ± 0.041
72 | GAUAUC | 2.02 ± 0.018 | 2.03 ± 0.036
73 | CAGAGU | 1.996 ± 0.0082 | 2.02 ± 0.035
74 | UAUGCC | 1.995 ± 0.0025 | 1.99 ± 0.04
75 | UAUGCA | 1.95 ± 0.027 | 2.01 ± 0.021
76 | AAUCAC | 2.008 ± 0.0074 | 2 ± 0.024
77 | AAUCAU | 1.961 ± 0.0057 | 1.992 ± 0.011
78 | AAUCAA | 1.973 ± 0.014 | 1.9902 ± 0.00064
79 | CAUAGG | 1.911 ± 0.019 | 1.998 ± 0.0083
80 | CAUAGA | 2.002 ± 0.0073 | 2.01 ± 0.033
81 | CAUAGU | 2.003 ± 0.013 | 2.025 ± 0.0053
82 | CAUAGC | 1.9903 ± 0.00018 | 1.98 ± 0.047
83 | UAGGUU | 1.961 ± 0.011 | 2 ± 0.026
84 | UAGGUC | 2.05 ± 0.022 | 2 ± 0.054
85 | GAGCUC | 2.07 ± 0.011 | 2.05 ± 0.041
86 | GAGCUU | 2.051 ± 0.011 | 2.04 ± 0.064
87 | GAGCUG | 2.087 ± 0.0096 | 2.07 ± 0.051
88 | AAUCCG | 1.969 ± 0.014 | 2.02 ± 0.055
89 | AAUCCC | 2.023 ± 0.003 | 2 ± 0.043
90 | UAUCAC | 1.978 ± 0.0043 | 1.99 ± 0.013
91 | UAGUUU | 2.01 ± 0.0059 | 2.02 ± 0.033
92 | UAGUUA | 1.932 ± 0.015 | 1.984 ± 0.0094

Row | Variant | normalized RNA/DNA level without ligand (log10) ((6R,S)-folinic acid [1]) | normalized RNA/DNA level with ligand (log10) ((6R,S)-folinic acid [2])
93 | UAGUUC | 2.0145 ± 0.00068 | 2.03 ± 0.027
94 | UAGUCG | 1.813 ± 0.0049 | 1.99 ± 0.043
95 | UAGUCC | 2.0087 ± 0.0016 | 2.03 ± 0.057
96 | UAGUCU | 2.0118 ± 0.0019 | 2.02 ± 0.037
97 | UAGUCA | 1.98 ± 0.021 | 2.01 ± 0.038
98 | CAUACG | 1.987 ± 0.0082 | 2 ± 0.023
99 | CAUACU | 2.01 ± 0.018 | 2.03 ± 0.051
100 | CAUACA | 2.001 ± 0.0091 | 1.98 ± 0.048
101 | CAUACC | 2.027 ± 0.004 | 2.03 ± 0.029
102 | UAGCCA | 2.034 ± 0.011 | 2.046 ± 0.019
103 | UAGCCC | 2.0516 ± 0.00055 | 2.03 ± 0.006
104 | CAUGGA | 2.0099 ± 0.0018 | 2.04 ± 0.025
105 | CAUGGU | 1.903 ± 0.019 | 1.95 ± 0.037
106 | CAUGGG | 1.91 ± 0.015 | 2.008 ± 0.013
107 | CAUGGC | 2.04 ± 0.022 | 2.03 ± 0.03
108 | UAGAGU | 1.855 ± 0.011 | 1.992 ± 0.016
109 | CAGAUG | 2.0121 ± 0.0011 | 2.026 ± 0.019
110 | CAGAUC | 2.046 ± 0.013 | 2.03 ± 0.052
111 | CAGAUU | 1.997 ± 0.01 | 2.004 ± 0.011
112 | UAUCCA | 1.979 ± 0.0079 | 2.001 ± 0.0084
113 | UAUCCC | 2.047 ± 0.0027 | 2.01 ± 0.042
114 | UAUCCU | 2.009 ± 0.0051 | 2 ± 0.048
115 | CAUCGU | 2.05 ± 0.021 | 2.02 ± 0.025
